Assay results reported in article PMC10985467 (Molecular Cancer Therapeutics, 2024).

Target: CD22 on human lymphoma and leukemia cell lines (Homo sapiens (Human)., UniProt P20273)
Experiment: cell-based or functional assay

CD22 on human lymphoma and leukemia cell lines, sequence (P20273 20-847): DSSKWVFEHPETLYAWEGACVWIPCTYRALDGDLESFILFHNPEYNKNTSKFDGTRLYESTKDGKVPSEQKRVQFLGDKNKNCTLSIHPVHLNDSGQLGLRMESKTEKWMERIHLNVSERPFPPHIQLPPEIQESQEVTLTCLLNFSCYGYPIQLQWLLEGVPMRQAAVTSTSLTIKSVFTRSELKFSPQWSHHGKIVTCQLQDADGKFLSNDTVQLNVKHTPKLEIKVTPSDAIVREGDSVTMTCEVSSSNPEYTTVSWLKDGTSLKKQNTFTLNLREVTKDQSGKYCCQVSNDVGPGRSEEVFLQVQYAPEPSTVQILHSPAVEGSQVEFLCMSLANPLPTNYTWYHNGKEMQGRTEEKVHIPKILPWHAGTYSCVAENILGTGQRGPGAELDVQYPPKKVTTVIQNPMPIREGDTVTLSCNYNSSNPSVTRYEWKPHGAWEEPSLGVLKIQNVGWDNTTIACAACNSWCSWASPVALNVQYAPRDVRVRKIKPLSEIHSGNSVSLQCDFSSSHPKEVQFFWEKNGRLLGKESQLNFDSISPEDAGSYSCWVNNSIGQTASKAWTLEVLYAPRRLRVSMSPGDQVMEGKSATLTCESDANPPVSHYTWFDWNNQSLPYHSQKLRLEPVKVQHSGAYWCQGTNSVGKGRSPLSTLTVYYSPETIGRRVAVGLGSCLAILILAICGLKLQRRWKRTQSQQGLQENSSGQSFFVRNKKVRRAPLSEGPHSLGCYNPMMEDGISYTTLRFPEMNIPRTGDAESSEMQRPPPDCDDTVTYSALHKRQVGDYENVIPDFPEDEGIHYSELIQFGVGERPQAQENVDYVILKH

B1: ADCT-602 (hLL2-C220 site-specifically conjugated to the PBD dimer payload tesirine, SG3249) (antibody, V domains shown)
VH: QVQLVQSGAEVKKPGSSVKVSCKASGYTFTSYWLHWVRQAPGQGLEWIGYINPRNDYTEYNQNFKDKATITADESTNTAYMELSSLRSEDTAFYFCARRDITTFYWGQGTLVTVSS
VL: DIQLTQSPSSLSASVGDRVTMSCKSSQSVLYSANHKNYLAWYQQKPGKAPKLLIYWASTRESGVPSRFSGSGSGTDFTFTISSLQPEDIATYYCHQYLSSWTFGQGTKVEIK
- IC50 of in vitro cytotoxicity (MTS, 96 hours), DO HH-2 cells: 0.06 nM
- IC50 of in vitro cytotoxicity (MTS, 96 hours), Daudi cells: 0.07 nM
- IC50 of in vitro cytotoxicity (MTS, 96 hours), GRANTA-519 cells: 0.02 nM
- IC50 of in vitro cytotoxicity (MTS, 96 hours), MEC-2 cells: 0.18 nM
- IC50 of in vitro cytotoxicity (MTS, 96 hours), NALM-6 cells: 0.11 nM
- IC50 of in vitro cytotoxicity (MTS, 96 hours), NAMALWA cells: 2.27 nM
- IC50 of in vitro cytotoxicity (MTS, 96 hours), REH cells: 0.05 nM
- IC50 of in vitro cytotoxicity (MTS, 96 hours), Ramos cells: 0.06 nM
